Measurements taken from US20180230224A1 (KITE PHARMA, published 2018).

T1: recombinant CD70-Fc (Sino Biological) (UniProt P32970 39-193, limits assumed)
T1 construct: Bought reagent; not shown: Fc part
T1 sequence (looked up): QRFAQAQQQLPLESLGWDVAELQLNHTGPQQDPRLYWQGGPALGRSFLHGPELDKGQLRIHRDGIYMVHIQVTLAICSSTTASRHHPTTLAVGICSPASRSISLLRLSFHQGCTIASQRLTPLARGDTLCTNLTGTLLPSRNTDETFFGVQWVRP

B1: 6E9.1_C28T_4Bz (other)
chain: QVHLVQSGAEVKKPGASVRVSCKASGYTFTSYYLHWVRQAPGQGLEWMGIVDPSGGSTSYDQKFQGRFTMTRDTSTSTVYMELSSLRSEDTAVYYCARDYGDYVFDYWGQGTLVTVSSGGGGSGGGGSGGGGSQSVLTQPPSASGTPGQRVTISCSGSSSNIGTNTVNWYQQLPGTAPQLLIYINNQRPSGVPDRFSGSKSGTSASLAISGLQSEDEADYYCATWDDSLNGPVVGGGTKLTVLGAAALDNEKSNGTIIHVKGKHLCPSPLFPGPSKPFWVLVVVGGVLACYSLLVTVAFIIFWVRFSVVKRGRKKLLYIFKQPFMRPVQTTQEEDGCSCRFPEEEEGGCELRVKFSRSADAPAYQQGQNQLYNELNLGRREEYDVLDKRRGRDPEMGGKPRRKNPQEGLYNELQKDKMAEAYSEIGMKGERRRGKGHDGLYQGLSTATKDTYDALHMQALPPR
notes: Chimeric antigen receptor on lentivirus-transduced human T cells; 6E9 scFv, CD28T hinge/TM, 4-1BB, CD3 zeta; also called 28T-4Bz comprising a 6E9 scFv
B2: 6E9.1_C28T_28z (other)
chain: QVHLVQSGAEVKKPGASVRVSCKASGYTFTSYYLHWVRQAPGQGLEWMGIVDPSGGSTSYDQKFQGRFTMTRDTSTSTVYMELSSLRSEDTAVYYCARDYGDYVFDYWGQGTLVTVSSGGGGSGGGGSGGGGSQSVLTQPPSASGTPGQRVTISCSGSSSNIGTNTVNWYQQLPGTAPQLLIYINNQRPSGVPDRFSGSKSGTSASLAISGLQSEDEADYYCATWDDSLNGPVVGGGTKLTVLGAAALDNEKSNGTIIHVKGKHLCPSPLFPGPSKPFWVLVVVGGVLACYSLLVTVAFIIFWVRSKRSRLLHSDYMNMTPRRPGPTRKHYQPYAPPRDFAAYRSRVKFSRSADAPAYQQGQNQLYNELNLGRREEYDVLDKRRGRDPEMGGKPRRKNPQEGLYNELQKDKMAEAYSEIGMKGERRRGKGHDGLYQGLSTATKDTYDALHMQALPPR
notes: Chimeric antigen receptor on lentivirus-transduced human T cells; also called 28T-28z comprising a 6E9 scFv
B3: 1C8.1.001_C28T_28z (other)
chain: QVQLQESGPGLVKPSQTLSLTCTVSGDSIISGGYYWSWIRQHPGKGLEWIGYIFYSGSTDYNPSLKSRVTISVDTSKNQFSLKLSSVTAADTAVYYCARSGYSYALFDHWGQGTLVTVSSGGGGSGGGGSGGGGSDIQMTQSPSSLSASVGDRVTISCRASQFIGRYFNWYQQQPGKAPKVLIYAESSLQSGVPSRFSGSGSGTEFTLTISSLQPEDFARYYCQQSYSTPFTFGQGTKVEIKRAAALDNEKSNGTIIHVKGKHLCPSPLFPGPSKPFWVLVVVGGVLACYSLLVTVAFIIFWVRSKRSRLLHSDYMNMTPRRPGPTRKHYQPYAPPRDFAAYRSRVKFSRSADAPAYQQGQNQLYNELNLGRREEYDVLDKRRGRDPEMGGKPRRKNPQEGLYNELQKDKMAEAYSEIGMKGERRRGKGHDGLYQGLSTATKDTYDALHMQALPPR
notes: Chimeric antigen receptor on lentivirus-transduced human T cells; also called 28T-28z comprising a 1C8 scFv
B4: 1C8.1.001_C28T_4Bz (other)
chain: QVQLQESGPGLVKPSQTLSLTCTVSGDSIISGGYYWSWIRQHPGKGLEWIGYIFYSGSTDYNPSLKSRVTISVDTSKNQFSLKLSSVTAADTAVYYCARSGYSYALFDHWGQGTLVTVSSGGGGSGGGGSGGGGSDIQMTQSPSSLSASVGDRVTISCRASQFIGRYFNWYQQQPGKAPKVLIYAESSLQSGVPSRFSGSGSGTEFTLTISSLQPEDFARYYCQQSYSTPFTFGQGTKVEIKRAAALDNEKSNGTIIHVKGKHLCPSPLFPGPSKPFWVLVVVGGVLACYSLLVTVAFIIFWVRFSVVKRGRKKLLYIFKQPFMRPVQTTQEEDGCSCRFPEEEEGGCELRVKFSRSADAPAYQQGQNQLYNELNLGRREEYDVLDKRRGRDPEMGGKPRRKNPQEGLYNELQKDKMAEAYSEIGMKGERRRGKGHDGLYQGLSTATKDTYDALHMQALPPR
notes: Chimeric antigen receptor on lentivirus-transduced human T cells; 1C8 scFv, CD28T hinge/TM, 4-1BB, CD3 zeta; also called 28T-4Bz comprising a 1C8 scFv
B5: 8G1.1_C28T_28z (other)
chain: QEQLVESGGGVVQPGRSLRLSCAASGFTFSSYGMHWVRQAPGKGLEWVAVTWYDGSNKYYGDSVKGRFTISRDNSKNTLYLQMNSLRAEDTAVYYCARDLLRGVKGYAMDVWGQGTTVTVSSGGGGSGGGGSGGGGSEIVLTQSPGTLSLSPGERATLSCRASQSLRRIYLAWYQQKPGQAPRLLIYDVFDRATGIPDRFSGGGSGTDFTLTISRLEPEDFAVYYCQQYSDSPFTFGPGTKVDIKRAAALDNEKSNGTIIHVKGKHLCPSPLFPGPSKPFWVLVVVGGVLACYSLLVTVAFIIFWVRSKRSRLLHSDYMNMTPRRPGPTRKHYQPYAPPRDFAAYRSRVKFSRSADAPAYQQGQNQLYNELNLGRREEYDVLDKRRGRDPEMGGKPRRKNPQEGLYNELQKDKMAEAYSEIGMKGERRRGKGHDGLYQGLSTATKDTYDALHMQALPPR
notes: also called CD70 CAR C3L; 28T-28z comprising an 8G1 scFv
B6: 8G1.1_C28T_4Bz (other)
chain: QEQLVESGGGVVQPGRSLRLSCAASGFTFSSYGMHWVRQAPGKGLEWVAVTWYDGSNKYYGDSVKGRFTISRDNSKNTLYLQMNSLRAEDTAVYYCARDLLRGVKGYAMDVWGQGTTVTVSSGGGGSGGGGSGGGGSEIVLTQSPGTLSLSPGERATLSCRASQSLRRIYLAWYQQKPGQAPRLLIYDVFDRATGIPDRFSGGGSGTDFTLTISRLEPEDFAVYYCQQYSDSPFTFGPGTKVDIKRAAALDNEKSNGTIIHVKGKHLCPSPLFPGPSKPFWVLVVVGGVLACYSLLVTVAFIIFWVRFSVVKRGRKKLLYIFKQPFMRPVQTTQEEDGCSCRFPEEEEGGCELRVKFSRSADAPAYQQGQNQLYNELNLGRREEYDVLDKRRGRDPEMGGKPRRKNPQEGLYNELQKDKMAEAYSEIGMKGERRRGKGHDGLYQGLSTATKDTYDALHMQALPPR
notes: Chimeric antigen receptor on lentivirus-transduced human T cells; 8G1 scFv, CD28T hinge/TM, 4-1BB, CD3 zeta; also called 28T-4Bz comprising an 8G1 scFv

Key:
[1] = biological target: CD70 on NAMALWA and Raji cells (human) (UniProt P32970); test: flow cytometry; U-937 cells stained with PE-conjugated anti-CD70 antibody; open histogram as control
[2] = biological target: CD70 on NAMALWA and Raji cells (human) (UniProt P32970); test: flow cytometry; NAMALWA cells stained with PE-conjugated anti-CD70 antibody; open histogram as control
[3] = biological target: CD70 on NAMALWA and Raji cells (human) (UniProt P32970); test: flow cytometry; EoL-1 cells stained with PE-conjugated anti-CD70 antibody; open histogram as control
[4] = biological target: CD70 on NAMALWA and Raji cells (human) (UniProt P32970); test: flow cytometry; MV4;11 cells stained with PE-conjugated anti-CD70 antibody; open histogram as control
[5] = biological target: CD70 on NAMALWA and Raji cells (human) (UniProt P32970); test: flow cytometry; Raji cells (panel title cut to 'Raj'; panel order given in the legend paragraph 42) stained with PE-conjugated anti-CD70 antibody; open histogram as control
[6] = biological target: CD70 on NAMALWA and Raji cells (human) (UniProt P32970); test: flow cytometry; Toledo cells stained with PE-conjugated anti-CD70 antibody; open histogram as control
[7] = biological target: T1, recombinant CD70-Fc (Sino Biological); test: flow cytometry; donor 1 T cells transduced with the CAR, day 14 post stimulation, stained with recombinant CD70-Fc and goat anti-human IgG Fc PE; mock-transduced cells as control
Experimental: Peripheral blood mononuclear cells (PBMCs) were isolated from two different healthy donor leukopaks (Hemacare) using Ficoll®-Paque density centrifugation according to the manufacturer's instructions. PBMCs were stimulated using OKT3 (Muromonab-CD3, 50 ng/ml, Miltenyi Biotec) in R10 media supplemented with IL-2 (300 IU/ml, Proleukin®, Prometheus® Therapeutics and Diagnostics). Forty-eight hours post-stimulation, cells were transduced using lentivirus containing the different CD70 CAR constructs at a multiplicity of infection (MOI) of 10. Cells were maintained at 0.5×10⁶-2.0×10⁶ cells/ml prior to use in activity assays.
At day 14 post-stimulation, transduced T cells were stained with recombinant CD70-Fc (Sino Biological) in stain buffer (BD Pharmingen) for 30 minutes at 4° C. Cells were then washed and stained with goat anti-human IgG Fc PE (Jackson ImmunoResearch) in stain buffer for 30 minutes at 4° C. Cells were then washed and resuspended in stain buffer with propidium iodide (BD Pharmingen) prior to data acquisition. All experiments were performed in two different donors.

Molecule | % CAR (+) [7] | further results
anti-CD70 antibody conjugated to PE (BD Pharmingen) | – | percent of cells in the positive gate (number in the panel) [1]: 96.6%; percent of cells in the positive gate (number in the panel) [2]: 100%; percent of cells in the positive gate (number in the panel) [3]: 64.6%; percent of cells in the positive gate (number in the panel) [4]: 43.1%; percent of cells in the positive gate (number in the panel) [5]: 100%; percent of cells in the positive gate (number in the panel) [6]: 99.9%
B1 | 4.48% | –
B2 | 4.45% | –
B3 | 25.4% | –
B4 | 0.27% | –
B5 | 42.2% | –
B6 | 49.8% | –
